# Experimental data as given in the supplement of paper PMC10567573.
# B1: BCL2L13 (parent)
# chain: MASSSTVPLGFHYETKYVVLSYLG
# Variants of: B1
# Assay: protein stability index of a GFP-peptide fusion (GPS, HEK-293T) (PSI 1-6); higher = more stable
# Settings: c terminus: a fixed tail appended
# 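Further: lentivirally expressed fusions sorted by FACS into six bins by GFP to DsRed ratio, PSI derived from sequencing read proportions per bin multiplied by bin number.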
row,Variant,protein stability index
1,MASSSTVILGFHYETKYVVLSYLG,2.73
2,MASSSTVFLGFHYETKYVVLSYLG,2.74
3,MASSSTVKLGFHYETKYVVLSYLG,3.91
4,MASSSTVALGFHYETKYVVLSYLG,2.97
5,MASSSTVVLGFHYETKYVVLSYLG,2.15
6,MASSSTVRLGFHYETKYVVLSYLG,3.92
7,MASSSTVDLGFHYETKYVVLSYLG,2.98
8,MASSSTVNLGFHYETKYVVLSYLG,3.63
9,MASSSTVMLGFHYETKYVVLSYLG,3.28
10,MASSSTVQLGFHYETKYVVLSYLG,2.54
11,MASSSTVSLGFHYETKYVVLSYLG,2.54
12,MASSSTVLLGFHYETKYVVLSYLG,1.66
13,MASSSTVTLGFHYETKYVVLSYLG,2.53
14,MASSSTVGLGFHYETKYVVLSYLG,4.24
15,MASSSTVELGFHYETKYVVLSYLG,2.25
16,MASSSTVPLGCHYETKYVVLSYLG,2.63
17,MASSSTVPLGIHYETKYVVLSYLG,2.02
18,MASSSTVPLGAHYETKYVVLSYLG,2.41
19,MASSSTVPLGLHYETKYVVLSYLG,2.36
20,MASSSTVPLGYHYETKYVVLSYLG,2.49
21,MASSSTVPLGSHYETKYVVLSYLG,1.9
22,MASSSTVPLGMHYETKYVVLSYLG,2.82
23,MASSSTVPLGTHYETKYVVLSYLG,1.81
24,MASSSTVPLGEHYETKYVVLSYLG,1.94

row,Variant,protein stability index
1,MASSSTVPLGRHYETKYVVLSYLG,1.71
2,MASSSTVPLGNHYETKYVVLSYLG,2.69
3,MASSSTVPLGQHYETKYVVLSYLG,2.85
4,MASSSTVPLGDHYETKYVVLSYLG,2.03
5,MASSSTVPLGPHYETKYVVLSYLG,2.33
6,MASSSTVPLGGHYETKYVVLSYLG,1.35
7,MASSSTVPLGWHYETKYVVLSYLG,1.89
8,MASSSTVPLGHHYETKYVVLSYLG,1.67
9,MASSSTVPLGKHYETKYVVLSYLG,2.63
10,MASSGTVPLGFHYETKYVVLSYLG,2.2
11,MASSFTVPLGFHYETKYVVLSYLG,2.55
12,MASSKTVPLGFHYETKYVVLSYLG,1.91
13,MASSCTVPLGFHYETKYVVLSYLG,2.11
14,MASSVTVPLGFHYETKYVVLSYLG,2.17
15,MASSDTVPLGFHYETKYVVLSYLG,2.72
16,MASSRTVPLGFHYETKYVVLSYLG,2.4
17,MASSMTVPLGFHYETKYVVLSYLG,2.51
18,MASSNTVPLGFHYETKYVVLSYLG,2.72
19,MASSHTVPLGFHYETKYVVLSYLG,2.09
20,MASSLTVPLGFHYETKYVVLSYLG,2.16
21,MASSITVPLGFHYETKYVVLSYLG,2.74
22,MASSATVPLGFHYETKYVVLSYLG,1.72
23,MASSYTVPLGFHYETKYVVLSYLG,3.24
24,MASSTTVPLGFHYETKYVVLSYLG,2.71

row,Variant,protein stability index
1,MASSPTVPLGFHYETKYVVLSYLG,2.24
2,MASSQTVPLGFHYETKYVVLSYLG,2.96
3,MASSWTVPLGFHYETKYVVLSYLG,2.02
4,MASSETVPLGFHYETKYVVLSYLG,1.53
5,MASVSTVPLGFHYETKYVVLSYLG,2.91
6,MASTSTVPLGFHYETKYVVLSYLG,2.81
7,MASYSTVPLGFHYETKYVVLSYLG,2.38
8,MASWSTVPLGFHYETKYVVLSYLG,2.93
9,MASSSTVPLGFHYEAKYVVLSYLG,1.86
10,MASSSHVPLGFHYETKYVVLSYLG,3.22
11,MASSSPVPLGFHYETKYVVLSYLG,2.59
12,MASSSQVPLGFHYETKYVVLSYLG,2.26
13,MASSSYVPLGFHYETKYVVLSYLG,2.66
14,MASSSMVPLGFHYETKYVVLSYLG,2.4
15,MASSSDVPLGFHYETKYVVLSYLG,2.29
16,MASSSIVPLGFHYETKYVVLSYLG,2.35
17,MASSSVVPLGFHYETKYVVLSYLG,1.82
18,MASSSLVPLGFHYETKYVVLSYLG,2.14
19,MASSSGVPLGFHYETKYVVLSYLG,1.94
20,MASSSCVPLGFHYETKYVVLSYLG,1.67
21,MASSSSVPLGFHYETKYVVLSYLG,2.95
22,MASSSRVPLGFHYETKYVVLSYLG,2.82
23,MASSSKVPLGFHYETKYVVLSYLG,2.59
24,MASSSAVPLGFHYETKYVVLSYLG,2.45

row,Variant,protein stability index
1,MASSSWVPLGFHYETKYVVLSYLG,2.27
2,MASSSNVPLGFHYETKYVVLSYLG,2.58
3,MASSSEVPLGFHYETKYVVLSYLG,3.45
4,MASSSTVPLGFPYETKYVVLSYLG,2.5
5,MASSSTVPLGFFYETKYVVLSYLG,3.51
6,MASSSTVPLGFEYETKYVVLSYLG,2.55
7,MASSSTVPLGFNYETKYVVLSYLG,2.12
8,MASSSTVPLGFWYETKYVVLSYLG,2.66
9,MASSSTVPLGFMYETKYVVLSYLG,2.39
10,MASSSTVPLGFLYETKYVVLSYLG,1.49
11,MASSSTVPLGFAYETKYVVLSYLG,2.3
12,MASSSTVPLGFYYETKYVVLSYLG,3.26
13,MASSSTVPLGFCYETKYVVLSYLG,3.05
14,MASSSTVPLGFGYETKYVVLSYLG,2.11
15,MASSSTVPLGFIYETKYVVLSYLG,2.75
16,MASSSTVPLGFRYETKYVVLSYLG,1.91
17,MASSSTVPLGFQYETKYVVLSYLG,2.67
18,MASSSTVPLGFTYETKYVVLSYLG,1.81
19,MASSSTVPLGFKYETKYVVLSYLG,2.23
20,MASSSTVPLGFSYETKYVVLSYLG,3.12
21,MASSSTVPLGFVYETKYVVLSYLG,2.67
22,MASSSTVPLGFDYETKYVVLSYLG,2.39
